Data reported in US6034212, “SH3 kinase domain associated protein, a signalling domain therein, nucleic acids encoding the protein and the domain, and diagnostic and therapeutic uses thereof” (The Rockefeller University, dated 2000).

B1: TrpE-YAP65 fusion protein (other)
chain: MQTQKPTLELLTCEGAYRDNPTALFHQLCGDRPATLLLESADIDSKDDLKSLLLVDSALRITALGDTVTIQALSGNGEALLALLDNALPAGVESEQSPNCRVLRFPPVSPLLDEDARLCSLSVFDAFRLLQNLLNVPKEEREAMFFGGLFSYDLVAGFEDLPQLSAENNCPDFCFYLAETLMVIDHQKKSTRIQASLFAPNEEEKQRLTARLNELRQQLTEAAPPLPVVSVPHMRCECNQSDEEFGGVVRLLQKAIRAGEIFQVVPSRRFSLPCPSPLAAYYVLKKSNPSPYMFFMQDNDFTLFGASPESSLKYDATSRQIEIPASLQLGAVSPGTLTPSGVVTGPGAPSSQHLRQSSFEIPDDVPLPPGWEMAKTPSGQRYFLNHIDQTTTWQDPRKAMLSQMNVTAPTSPPVQQNLMNSASAMNQRISQSAPVKQPPPLAPQSPQGGVMGGSSSNQQQQMRLQQLQMEKERLRLKHQELLRQELALRSQLPTMEQDGGSQNPVSSPGMSQELRTMTTNSSDPFLNSGTYHSRDESTDSGLSMSSYSVPRTPDDFLNSVDEMDTGDSISQSNIPSHQNRFPDYLEAIPGTNVDLGTLEGDGMNIEGEELMPSLQEALSSDILNDMES
modifications: 35S-labeled when used as probe

Assays:
GST alone = GST alone (Schistosoma japonicum (Blood fluke), UniProt P08515 = GST, 32P-labelled when used as probe in Example 5); experiment: Western ligand blot on TrpE-YAP65
[1] = target: T1, GST-SH3-Yes fusion protein (Gallus gallus (Chicken), UniProt P09324, 35S-methionine labeled when used as probe); experiment: membrane binding assay, radioactively labeled TrpE-YAP65 on blotted GST fusions
Procedure: (§1) FIG. 5. Binding between YAP65 and Yes in vitro. (A) TrpE-YAP65 fusion protein (2,4,5,6,7) or TrpE alone (1,3) were probed on Western blots with ^35S-methionine labeled GST-Yes-SH3 alone (2) or with radioactive GST-Yes-SH3 supplemented with 10 µM of cold GST-Yes-SH3 (4); Lane 5 is as in lane 2 but the incubation was in the presence of SPLAP peptide (200 µM); lanes 6 and 7, the binding was competed with 50 µM and 200 µM of the PLAP peptide, respectively. The arrow indicates partially purified TrpE-YAP65 fusion protein. Lower migrating protein bands represent products of proteolytic degradation. Even if an increased concentration of protease inhibitors and careful purification protocols were used, we always observed limited degradation of the TrpE-YAP65 protein. Equal amounts (8 µg) of TrpE-fusion protein or TrpE protein were loaded into each lane of the SDS-polyacrylamide gel and transferred to nitrocellulose. […]
To perform reciprocal binding and to estimate the relative specificity of YAP65 binding to other proteins that contain SH3 domains, we probed the purified GST fusion proteins of Nck, Crk, Src, Abl and GAP with radioactively labeled Trp-E-YAP65 protein. The same amount of protein was analyzed in a membrane binding assay; TRPE-YAP-65 bound the strongest to Nck and Yes followed by Crk, and Src. […]

[2] = target: T1, GST-SH3-Yes fusion protein; experiment: competition of labeled GST-YES-SH3 binding to blotted TrpE-YAP65 by the scrambled peptide
Procedure: as §1, with “nitrocellulose. (B) Differential binding of ^35S-labeled TrpE-YAP65 fusion protein to various fusion proteins containing SH3 domains. Before the Western transfer, we had loaded equal amounts (1 µg) of purified proteins into each lane of the SDS gel. An SDS-polyacrylamide gel was run in parallel and stained with Coomassie Blue to confirm equal concentrations of the purified proteins.” for “nitrocellulose.”

Binder	binding result (GST alone)	binding result [1]	binding result [2]
B1	no binding	binds	
VQPAQLSIPGPVSPQPKGQSPA [SPLAP peptide]			no binding (tested: 200 µM)
